Test results taken from US20110212075A1, “SCREENING METHOD FOR POLYMORPHIC MARKERS IN HTRA1 GENE IN NEURODEGENERATIVE DISORDERS” (SIEMENS AKTIENGESELLSCHAFT, priority 2007, published 2011).

Legend:
HtrA1 = target: T1, HtrA1 (Homo sapiens, UniProt Q92743); assay: HtrA1 activation by peptides (degradation of wt-tau, SDS/PAGE); assay type: biochemical; conditions: peptide 200 μM in DMSO, HtrA1 (0.04 μg) preincubated 10 minutes at 37° C., wt-tau (2 μg) 10 minutes at 37° C., Coomassie gel, FIG. 18
T1 construct: made in house; host or cells: Escherichia coli BL21 D3+
Protocol: Purified wt-tau (2 μg) was incubated with HtrA1 (0.04 μg) for 10 minutes at 37° C. HtrA1 was preincubated with different peptides for 10 minutes at 37° C. All peptides were dissolved in DMSO and added to a final concentration of 200 μM. Wt-tau was incubated with DQLAFHQFYI (lane 1), KKKDSRIWWV (lane 2) and with HtrA1 and DMSO as a control (lane 3). Samples were loaded on a SDS/PAGE. The gel was stained with Coomassie Blue.
(§1) HtrA1 interacts with presenilin 1 (PS1). This was evident from data obtained from copurification, comigration during size exclusion chromatography and two hybrid analyses. […] Such a peptide could be used as a basis to synthesise a potent HtrA1 activator that could be of therapeutic relevance. […] This peptide did however not bind to HtrA1 composed of protease and PDZ domain as shown by Isothermal Titration calorimetry. Only after adding […] residues, the peptide did bind to HtrA1.

[1] = target: T2, HtrA1 composed of protease and PDZ domain (Homo sapiens, UniProt Q92743); assay: Binding of peptide to HtrA1 by Isothermal Titration calorimetry
T2 construct: HtrA1 composed of protease and PDZ domain
Source text: as §1

PDZ domain of HtrA1 = PDZ domain of HtrA1 (Homo sapiens, UniProt Q92743); conditions: Runyon et al. Protein Sci. 16:2454-71 (2007); cited from earlier work
Chain of PDZ domain of HtrA1 (Q92743 365-467 limits assumed): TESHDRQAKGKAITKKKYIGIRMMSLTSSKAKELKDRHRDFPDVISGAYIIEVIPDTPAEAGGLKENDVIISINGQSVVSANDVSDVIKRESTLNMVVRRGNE

T2 sequence (Q92743 158-480 limits assumed): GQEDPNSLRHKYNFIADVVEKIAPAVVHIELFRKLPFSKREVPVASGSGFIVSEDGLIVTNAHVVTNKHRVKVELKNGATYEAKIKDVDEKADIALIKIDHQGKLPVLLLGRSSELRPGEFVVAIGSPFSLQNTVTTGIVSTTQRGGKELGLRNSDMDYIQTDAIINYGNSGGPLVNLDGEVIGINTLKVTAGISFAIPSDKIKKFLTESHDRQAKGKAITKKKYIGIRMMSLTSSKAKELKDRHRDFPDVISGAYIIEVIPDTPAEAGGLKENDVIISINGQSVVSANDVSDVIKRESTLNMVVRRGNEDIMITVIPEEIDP
T1 sequence (Q92743 158-480 limits assumed): as above

activation of HtrA1 as shown by a more efficient degradation of tau (HtrA1)	binding to HtrA1 [1]	Substance	binding to the PDZ domain of HtrA1 (PDZ domain of HtrA1)
activate HtrA1	–	DQLAFHQFYI [peptide comprised of the 10 C-terminal residues of PS1 (presenilin 1)]	–
–	not bind	DSRIWWV [reference compound]	excellent binding
weaker activator	did bind	KKKDSRIWWV [second peptide, DSRIWWV with 3 added N-terminal residues]	–
